± gives the uncertainty stated by the source.
Test: self-splicing fitness, log relative to wild type (ln ratio); higher = more splicing; Tetrahymena group I intron in knt gene, E. coli kanamycin selection, DiMSum; sequences stand for … in CUCUCU…GGAGGGAAAAGUUAUCAGGCAUGCACCUGGUAGCUAGUCUUUAAACCAAUAGAUUGCAUCGGUUUAAAAGGCAAGACCGUCAAAUUGCGGGAAAGGGGUCAACAGCCGUUCAGUACCAAGUCUCAGGGGAAACUUUGAGAUGGCCUUGCAAAGGGUAUGGUAAUAAGCUGACGGACAUGGUCCUAACCACGCAGCCAAGUCCUAAGUCAACAGAUCUUCUGUUGAUAUGGAUGCAGUUCACAGACUAAAUGUCGGUCGGGGAAGAUGUAUUCUUCUCAUAAGAUAUAGUCGGACCUCUCCUUAAUGGGAGCUAGCGGAUGAAGUGAUGCAACACUGGAGCCGCUGGGAACUAAUUUGUAUGCGAAAGUAUAUUGAUUAGUUUUGGAGUACUCGUGGUCG
Procedure, shortened: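 Pooled colonies went to amplicon sequencing on an Illumina HiSeq 2500 after six replicate transformations. The plates were LB agar with 100 μg/mL carbenicillin, 50 μM IPTG and 0.2% rhamnose, with or without 25 μg/mL kanamycin, incubated overnight at 37°C or 30°C. The E. coli BL21(DE3) library had all eight P1ex-region intron nucleotides randomised, the intron placed in the knt kanamycin-resistance gene on pET-22b(+). DiMSum fitness is the error-weighted combination of replicate fold changes, kanamycin against none, normalised to wild type.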

## UAGCAGCAAUAUUACGCGCA
30 °C
  self-splicing fitness (ln): -0.588 ± 0.11
37 °C
  self-splicing fitness (ln): -0.487 ± 0.095

## UAAGAGCAAUAUUACGAAAG
30 °C
  self-splicing fitness (ln): -3.88 ± 0.31
37 °C
  self-splicing fitness (ln): -1.92 ± 0.23

## CAGCAGCAAUAUUACGGAUC
30 °C
  self-splicing fitness (ln): -3.6 ± 0.36
37 °C
  self-splicing fitness (ln): -1.37 ± 0.26

## AACUAGCAAUAUUACGGGGU
30 °C
  self-splicing fitness (ln): -3.93 ± 0.3
37 °C
  self-splicing fitness (ln): -2.34 ± 0.18

## GUACAGCAAUAUUACGCGCG
30 °C
  self-splicing fitness (ln): -1.45 ± 0.19
37 °C
  self-splicing fitness (ln): -0.578 ± 0.17

## GUUCAGCAAUAUUACGAGUC
30 °C
  self-splicing fitness (ln): -1.32 ± 0.15
37 °C
  self-splicing fitness (ln): -0.628 ± 0.17

## AACGAGCAAUAUUACGUUCC
30 °C
  self-splicing fitness (ln): -3.09 ± 0.36
37 °C
  self-splicing fitness (ln): -2.41 ± 0.3

## GAUAAGCAAUAUUACGCCAA
30 °C
  self-splicing fitness (ln): -1.91 ± 0.2
37 °C
  self-splicing fitness (ln): -2.16 ± 0.22

## AGGUAGCAAUAUUACGUAAG
30 °C
  self-splicing fitness (ln): -2.267 ± 0.017
37 °C
  self-splicing fitness (ln): -1.25 ± 0.034

## CGAUAGCAAUAUUACGGCCG
30 °C
  self-splicing fitness (ln): -0.641 ± 0.087
37 °C
  self-splicing fitness (ln): -0.184 ± 0.15

## CAUCAGCAAUAUUACGCGGG
30 °C
  self-splicing fitness (ln): -2.04 ± 0.13
37 °C
  self-splicing fitness (ln): -0.735 ± 0.12

## CAUAAGCAAUAUUACGCGCC
30 °C
  self-splicing fitness (ln): -3.87 ± 0.4
37 °C
  self-splicing fitness (ln): -1.47 ± 0.34

## AAUCAGCAAUAUUACGGACG
30 °C
  self-splicing fitness (ln): -0.448 ± 0.068
37 °C
  self-splicing fitness (ln): 0.478 ± 0.12

## CAAUAGCAAUAUUACGCGCC
37 °C
  self-splicing fitness (ln): -1.04 ± 0.44

## ACAGAGCAAUAUUACGACCA
30 °C
  self-splicing fitness (ln): -0.827 ± 0.21

## AGUAAGCAAUAUUACGCGAU
30 °C
  self-splicing fitness (ln): -3.74 ± 0.18
37 °C
  self-splicing fitness (ln): -2.29 ± 0.18

## GGAAAGCAAUAUUACGGUGG
30 °C
  self-splicing fitness (ln): -1.84 ± 0.16
37 °C
  self-splicing fitness (ln): -1.53 ± 0.16

## UAACAGCAAUAUUACGGGCG
30 °C
  self-splicing fitness (ln): -0.476 ± 0.064
37 °C
  self-splicing fitness (ln): 0.217 ± 0.087

## CUUAAGCAAUAUUACGCCUA
30 °C
  self-splicing fitness (ln): -1.91 ± 0.38

## AUUUAGCAAUAUUACGCGUG
30 °C
  self-splicing fitness (ln): -1.2 ± 0.14
37 °C
  self-splicing fitness (ln): -0.97 ± 0.14

## GGAAAGCAAUAUUACGCAGC
30 °C
  self-splicing fitness (ln): -2.07 ± 0.22
37 °C
  self-splicing fitness (ln): -1.53 ± 0.23

## CUCUAGCAAUAUUACGAACU
37 °C
  self-splicing fitness (ln): -4.2 ± 0.42

## GAGUAGCAAUAUUACGGCGC
30 °C
  self-splicing fitness (ln): -0.602 ± 0.14
37 °C
  self-splicing fitness (ln): 0.407 ± 0.19

## UAUGAGCAAUAUUACGAUUA
30 °C
  self-splicing fitness (ln): -0.445 ± 0.094
37 °C
  self-splicing fitness (ln): 0.467 ± 0.093

## AAAAAGCAAUAUUACGAGUA
30 °C
  self-splicing fitness (ln): -1.68 ± 0.12
37 °C
  self-splicing fitness (ln): -0.884 ± 0.11

## GAUCAGCAAUAUUACGGGUC
30 °C
  self-splicing fitness (ln): -3.38 ± 0.21
37 °C
  self-splicing fitness (ln): -3.05 ± 0.25

## CAUUAGCAAUAUUACGAAAA
30 °C
  self-splicing fitness (ln): -2.21 ± 0.46
37 °C
  self-splicing fitness (ln): -1.46 ± 0.45

## CCCAAGCAAUAUUACGAGGU
30 °C
  self-splicing fitness (ln): -3.16 ± 0.091
37 °C
  self-splicing fitness (ln): -2.08 ± 0.086

## UGACAGCAAUAUUACGCUCC
30 °C
  self-splicing fitness (ln): -1.28 ± 0.13
37 °C
  self-splicing fitness (ln): -0.275 ± 0.14

## ACAAAGCAAUAUUACGUAGA
30 °C
  self-splicing fitness (ln): -3.68 ± 0.16
37 °C
  self-splicing fitness (ln): -1.66 ± 0.15

## AGGAAGCAAUAUUACGUGCA
30 °C
  self-splicing fitness (ln): -1.12 ± 0.11
37 °C
  self-splicing fitness (ln): -1.32 ± 0.13

## UCGUAGCAAUAUUACGUGUU
30 °C
  self-splicing fitness (ln): -3.06 ± 0.21
37 °C
  self-splicing fitness (ln): -2.46 ± 0.19

## AACCAGCAAUAUUACGUCUC
30 °C
  self-splicing fitness (ln): -1.23 ± 0.056
37 °C
  self-splicing fitness (ln): -0.774 ± 0.076

## AUGUAGCAAUAUUACGGAGC
30 °C
  self-splicing fitness (ln): -4.16 ± 0.16
37 °C
  self-splicing fitness (ln): -3.02 ± 0.15

## AUAGAGCAAUAUUACGGAAG
30 °C
  self-splicing fitness (ln): -2.48 ± 0.18
37 °C
  self-splicing fitness (ln): -1.45 ± 0.21

## UUAUAGCAAUAUUACGAGUA
30 °C
  self-splicing fitness (ln): -1.68 ± 0.38
37 °C
  self-splicing fitness (ln): -1.09 ± 0.33

## UGCAAGCAAUAUUACGACCU
30 °C
  self-splicing fitness (ln): -0.737 ± 0.07
37 °C
  self-splicing fitness (ln): -0.219 ± 0.089

## CGUCAGCAAUAUUACGCGUC
30 °C
  self-splicing fitness (ln): -2.38 ± 0.42

## GUGUAGCAAUAUUACGCCCA
37 °C
  self-splicing fitness (ln): -0.199 ± 0.35

## ACUCAGCAAUAUUACGAACG
30 °C
  self-splicing fitness (ln): -0.623 ± 0.1
37 °C
  self-splicing fitness (ln): -0.492 ± 0.14

## GGCUAGCAAUAUUACGCACU
30 °C
  self-splicing fitness (ln): -0.665 ± 0.1
37 °C
  self-splicing fitness (ln): -0.592 ± 0.1

## UAAAAGCAAUAUUACGAUUU
30 °C
  self-splicing fitness (ln): -1.36 ± 0.11
37 °C
  self-splicing fitness (ln): -0.59 ± 0.11

## CGAUAGCAAUAUUACGGAAC
30 °C
  self-splicing fitness (ln): -2.5 ± 0.2
37 °C
  self-splicing fitness (ln): -2.68 ± 0.25

## ACUGAGCAAUAUUACGUUAA
30 °C
  self-splicing fitness (ln): -4.3 ± 0.42
37 °C
  self-splicing fitness (ln): -2.15 ± 0.28

## UGCCAGCAAUAUUACGUGCU
30 °C
  self-splicing fitness (ln): -3.14 ± 0.11
37 °C
  self-splicing fitness (ln): -1.48 ± 0.1

## CUGGAGCAAUAUUACGCCGA
30 °C
  self-splicing fitness (ln): -1.18 ± 0.34

## UGCAAGCAAUAUUACGAGGC
30 °C
  self-splicing fitness (ln): -4.02 ± 0.27
37 °C
  self-splicing fitness (ln): -2.13 ± 0.23

## UUAGAGCAAUAUUACGUAGA
30 °C
  self-splicing fitness (ln): -2.18 ± 0.17
37 °C
  self-splicing fitness (ln): -1.41 ± 0.19

## UUACAGCAAUAUUACGGUGC
30 °C
  self-splicing fitness (ln): -3.23 ± 0.21
37 °C
  self-splicing fitness (ln): -1.92 ± 0.17

## GACGAGCAAUAUUACGCACG
30 °C
  self-splicing fitness (ln): -3.63 ± 0.23
37 °C
  self-splicing fitness (ln): -2.61 ± 0.25

— the supplement of paper PMC7877785
